Results published in article PMC3280255.

Target: FUD, a 56-residue recombinant polypeptide based on the Functional Upstream Domain of the F1 adhesin of Streptococcus pyogenes (Streptococcus pyogenes)
Assay: ELISA; competitive enzyme-linked assay: high binding plates coated overnight at 4°C with 10 µg/mL FN; 0.3 nM biotinylated FUD with increasing concentrations of soluble 70K proteins; binding relative to no competitor

## 70K I150/242A (Ile-to-Ala mutations in the IGD motifs of 3FNI and 5FNI) (domain or fragment)
  fold decrease in ability to compete, against wildtype 70K: 2 fold

## 70K I480/572A (Ile-to-Ala mutations in the IGD motifs of 7FNI and 9FNI) (domain or fragment)
  fold decrease in ability to compete, against wildtype 70K: 2 fold
